Measurements: US9587002B2, “Sequence of nucleotides and peptides GSE 24.2 of dyskerin, which can induce telomerase activity, method for obtaining same, therapeutic compositions and applications thereof” (CONSEJO SUPERIOR DE INVESTIGACIONES CIENTIFICAS, priority 2005, dated 2017)

Columns and labels:
hTR = experiment: RT-PCR of hTR in VA13 cells; assay type: cell-based; details: transient transfection
Protocol: FIG. 10.—Telomerase activity and expression levels of hTERT and hTR in the cells of patients with dyskeratosis congenita and in VA13 cells transiently transfected with the 24.2 plasmid or the pLNCX empty vector. A) Telomerase activity measured by means of the TRAP assay in the cells of patients with dyskeratosis congenita (DC-1, DC-2 and DC-3) and in the carrier parent (DC-C) following electroporation of 45 μg of the pLNCX empty plasmid (−) or the pLNCX 24.2 vector (+) by 15 million cells. B) RT-PCR of the RNA from cells of one of the patients with dyskeratosis congenita, DC3 transfected with the empty vector and DC3 transfected with the 24.2 plasmid, using oligos specific for hTERT and hTR. As a starting RNA control, oligos for the amplification of GAPDH were used. C) Telomerase activity in VA13 cells. The cells were transiently transfected with 16 μg of the control pLNCX empty vector, expressing DKC or the GSE 24.2 peptide per million cells. 24 hours later, the telomerase activity was analysed as described above, using dilutions of the protein extracts from each transfection. D) The expression levels of hTERT and hTR in VA13 cells transfected with 16 μg of the different construct per million cells. RNA levels were detected as described above. GAPDH was used as a control. […] After 24 h of transfection, the luciferase activity was analyzed as described above. […]

c-MYC promoter = experiment: c-MYC-luc reporter (px3.2) luciferase assay in 293T cells; assay type: cell-based, human
Protocol: FIG. 12.—The promoter activity of c-MYC is induced by the GSE 24.2 peptide. A) Schematic representation of the c-MYC promoter, indicating the different constructs used in the experiments. B) 293T cells were co-transfected with the specified plasmids (10 μg/DNA per million cells) and with the px3.2 c-MYC-luc reporter (1 μg per million cells). C) The specified cell lines were transfected with the px3.2 c-MYC-luc reporter (1 μg per million cells). D) The specified cell lines were transfected with the different constructs of the c-MYC-luc reporter (1 μg per million cells). After 24 hours of transfection, the luciferase activity was analysed as specified above. CMV-Renilla (0.1 μg/ml per million cells) was used as a control for the transfection efficiency. The data represent the mean of two experiments performed in quadruplicate.
FIG. 13.—The activity of the c-MYC promoter induced by the GSE 24.2 peptide is dependent on the NHE III element. A) Schematic representation of the mutations generated in the NHE III element, px3.2 (SEQ ID NO: 21), px3.2 G12A (SEQ ID NO: 22), px3.2 G17A (SEQ ID NO: 23), and px3.2 G26T/G27T (SEQ ID NO: 24). B) The 293T cells were co-transfected with different constructs (10 μg/DNA per million cells) and with the different mutants of the px3.2 reporter plasmid (1 μg per million cells). C) The cell lines specified in the figure were transfected with the different mutants of the px3.2 reporter (1 μg per million cells). After 24 h of transfection, the luciferase activity was analysed as specified above. CMV-Renilla (0.1 μg/ml per million cells) was used as a control for the transfection efficiency. The data represent the mean of two experiments performed in quadruplicate.
The transcription of the c-myc gene is controlled by two different promoters and it seems to be repressed by a domain hypersensitive to DNase located between the P0 and P1 promoters (NHEIII). Thus, four different constructs were used that contained 3.2 kb of the transcription initiation point of c-myc bound to the luciferase gene (FIG. 12a).
This transcription factor, c-myc, should therefore activate the transcription of hTERT. Thus, three mutants deleted in the c-myc promoter were used to define the necessary region for the GSE 24.2 peptide to perform its inducing activity.
Since the NHEIII region has been described as an inhibitor of the transcription of c-myc, several mutants of the NHEIII region were constructed by Guanine modification of the purine-rich region. The 27 Guanines present in the NHEIII region are involved in maintaining the secondary structure of the G-quadruplexes of the purine-rich region (Pu27). The following were mutated: G12A, located on the second guanine of the second quartet; G17A, on the second triplet of Guanines; and, finally, two consecutive Guanines (G26A/G27A) at the end of the purine-rich region (FIG. 13a). These promoter construct were transfected in cells that express, either the empty vector, or the vectors containing the DKC protein or the GSE 24.2 peptide.
Directed mutagenesis. The specific mutations of guanine in the NHEIII region of the c-myc gene promoter, px3.2, were performed using the Quickchange X-L directed mutagenesis kit (Strategene) in accordance with the manufacturer's instructions.

B1: GSE 24.2: 165-pb cDNA fragment (nucleotides 268 to 433) of human dyskerin, SEQ ID NO1, encoding peptide SEQ ID NO2, expressed from pLNCX plasmid (nucleic acid, listed as Homo sapiens)
DNA: GGTTTCATTAATCTTGACAAGCCCTCTAACCCCTCTTCCCATGAGGTGGTAGCCTGGATTCGACGGATACTTCGGGTGGAGAAGACAGGGCACAGTGGTACTCTGGATCCCAAGGTGACTGGTTGTTTAATCGTGTGCATAGAACGAGCCACTCGCTTGGTGAAG
modifications: expressed from pLNCX plasmid; CDS (1)..(165) Sequence GSE 24.2
hTR
  expression of hTR RNA in VA13 cells: capable of recovering
c-MYC promoter; 293T cells, GSE 24.2 plasmid vs pLNCX jointly with px3.2myc reporter
  c-myc promoter (px3.2myc) activity, transient co-transfection: A similar result was obtained
c-MYC promoter; GSE 24.2 cells vs control cells, three deleted mutants
  transcription from deletion mutants of the c-myc promoter: only those contained in the distal region of promoters P1 and P0, which include the NHEIII domain, were capable of maintaining the transcription
c-MYC promoter; cells expressing empty vector, DKC or GSE 24.2
  activation of WT px3.2 myc promoter: only the WT px3,2 myc promoter was capable of being activated
c-MYC promoter; mutants G12A, G17A, G26A/G27A
  activation of Pu27 (NHEIII) mutant c-myc promoters: at very low levels
c-MYC promoter; stable cell lines transfected with px3.2myc
  c-myc promoter (px3.2myc) activity, GSE 24.2 cells vs control cells: three-fold increase in activity
